The test system of data set [1] is pulmonary fibrosis, low dose bleomycin, vascular leak model. The note with it: male, C57Bl/6, mouse, in vivo, iv. As to the method:
Adult male C57Bl/6 mice were administered a single intratracheal dose of low dose bleomycin at 0.1 U/kg (low dose), in a total volume of 50 μl sterile saline. FTY720 was administered intraperitoneally to the mice at 1 mg/kg three times a week. To effect treatment in the low dose bleomycin, vascular leak model, the therapeutic murine antibody 3G9 (alpha-v-beta6 blocking antibody) and 1E6 (matched isotype control antibody) were used. Antibodies were injected into mice intraperitoneally three times week at a concentration of 1 mg/kg. All administrations of FTY720 and antibodies were initiated on day 0, ˜30 minutes before bleomycin challenge and continued throughout the duration of the experiments. Animals were placed in a small-animal PET/SPECT/CT scanner (Triumph; TriFoil Imaging), equipped with inhalation anesthesia and heating pad. […] Instrument calibration was performed with phantoms containing small known amounts of radioactivity. […] Reconstructed PET/CT data were quantitatively evaluated using AMIDE software package (Loening and Gambhir, 2003). […] The radioactivity concentration within organs was obtained from mean pixel values within the VOI volume and converted to counts per milliliter per minute and then divided by the injected dose (ID) to obtain an imaging VOI-derived percentage of the injected radioactive dose per cubic centimeter of tissue (% ID/cc). […]

Data set [2] has the same test system. Put plainly: in vivo. Also on record: species or system mouse. The conditions noted are these: mouse. Here is the method:
Adult male C57Bl/6 mice were administered a single intratracheal dose of low dose bleomycin at 0.1 U/kg (low dose), in a total volume of 50 μl sterile saline. FTY720 was administered intraperitoneally to the mice at 1 mg/kg three times a week. To effect treatment in the low dose bleomycin, vascular leak model, the therapeutic murine antibody 3G9 (alpha-v-beta6 blocking antibody) and 1E6 (matched isotype control antibody) were used. Antibodies were injected into mice intraperitoneally three times week at a concentration of 1 mg/kg. All administrations of FTY720 and antibodies were initiated on day 0, ˜30 minutes before bleomycin challenge and continued throughout the duration of the experiments. […] The tissues were weighed, and radioactivity in each tissue was measured on a gamma counter (CobraII Auto gamma; Packard). The radioactivity in the lung was reported as percent injected dose per gram corrected with the average sham weight, which was calculated by dividing the counts of ^64Cu per average sham tissue weight in gram by the total of counts of the injected dose. The radioactivity in every other tissue was reported as percent injected dose per gram (% ID/g), which was calculated by dividing the counts of ^64Cu per gram of tissue by the total of counts of the injected dose. […] Uncertainties are expressed as the standard error of the mean.

On to `CC(C)C[C@H](NC(=O)[C@@H]1CSSC[C@H](NC(=O)[C@H](Cc2c[nH]cn2)NC(=O)[C@H](Cc2c[nH]c3ccccc23)NC(=O)[C@H](CCCCNC(=O)CNC(=O)CCC(C(=O)O)N2CCN(CC(=O)O)CCN(CC(=O)O)CC2)NC(=O)CNC(=O)CCC(C(=O)O)N2CCN(CC(=O)O)CCN(CC(=O)O)CC2)C(=O)N[C@@H]([C@@H](C)O)C(=O)N[C@@H]([C@@H](C)O)C(=O)N[C@@H](CCCCNC(=O)CCC(C(=O)O)N2CCN(CC(=O)O)CCN(CC(=O)O)CC2)C(=O)N[C@@H](Cc2ccccc2)C(=O)N2CCC[C@H]2C(=O)N[C@@H](Cc2c[nH]cn2)C(=O)N[C@@H](Cc2c[nH]cn2)C(=O)N[C@@H](Cc2ccc(O)cc2)C(=O)N1)C(=O)N[C@@H](Cc1ccc(O)cc1)C(=O)N[C@@H](Cc1ccc(-c2ccccc2)cc1)C(N)=O` (single isomer, unassigned) [CBP8], for which the “mean lung PET activity” value in data set [1] came to 2.07 ± 0.53 % ID/cc. Further, in data set [2], the “organ uptake between groups, except lungs, in words” value was “not significantly different”.

Values taken from US10471162B2, “Collagen targeted imaging probes” (priority 2014, dated 2019).
